# Assay results as given in the MegaScale stability set (Tsuboyama et al. 2023).
# B1: 5KPH (parent)
# chain: EEKRQVKQVAKEKLLEQSPNSKVQVRRVQKQGNTIRVELELRTNGKKENYTVEVERQGNTWTVKRITRT
# Variants of: B1
# Test: folding stability dG (cDNA display proteolysis); higher = more stable
# Details: PBS, room temperature
row,Variant,folding stability dG [kcal/mol]
1,EEKRQVKQVAKEKLLEQSPNSKVQVRRVQKQGVTIRVELELRTNGKKENYTVEVERQGNTWTVKRITRT [N33V],3.4
2,EEKRQVKQVAKEKLLEQSPNSKVQVRRVQKQGFTIRVELELRTNGKKENYTVEVERQGNTWTVKRITRT [N33F],3.67
3,EEKRQVKQVAKEKLLEQSPNSKVQVRRVQKQGLTIRVELELRTNGKKENYTVEVERQGNTWTVKRITRT [N33L],3.58
4,EEKRQVKQVAKEKLLEQSPNSKVQVRRVQKQGHTIRVELELRTNGKKENYTVEVERQGNTWTVKRITRT [N33H],3.53
5,EEKRQVKQVAKEKLLEQSPNSKVQVRRVQKQGATIRVELELRTNGKKENYTVEVERQGNTWTVKRITRT [N33A],3.79
6,EEKRQVKQVAKEKLLEQSPNSKVQVRRVQKQGPTIRVELELRTNGKKENYTVEVERQGNTWTVKRITRT [N33P],3.55
7,EEKRQVKQVAKEKLLEQSPNSKVQVRRVQKQGMTIRVELELRTNGKKENYTVEVERQGNTWTVKRITRT [N33M],3.74
8,EEKRQVKQVAKEKLLEQSPNSKVQVRRVQKQGKTIRVELELRTNGKKENYTVEVERQGNTWTVKRITRT [N33K],3.75
9,EEKRQVKQVAKEKLLEQSPNSKVQVRRVQKQGCTIRVELELRTNGKKENYTVEVERQGNTWTVKRITRT [N33C],3.22
10,EEKRQVKQVAKEKLLEQSPNSKVQVRRVQKQGTTIRVELELRTNGKKENYTVEVERQGNTWTVKRITRT [N33T],3.82
11,EEKRQVKQVAKEKLLEQSPNSKVQVRRVQKQGITIRVELELRTNGKKENYTVEVERQGNTWTVKRITRT [N33I],3.38
12,EEKRQVKQVAKEKLLEQSPNSKVQVRRVQKQGRTIRVELELRTNGKKENYTVEVERQGNTWTVKRITRT [N33R],3.74
13,EEKRQVKQVAKEKLLEQSPNSKVQVRRVQKQGQTIRVELELRTNGKKENYTVEVERQGNTWTVKRITRT [N33Q],3.71
14,EEKRQVKQVAKEKLLEQSPNSKVQVRRVQKQGSTIRVELELRTNGKKENYTVEVERQGNTWTVKRITRT [N33S],3.88
15,EEKRQVKQVAKEKLLEQSPNSKVQVRRVQKQGETIRVELELRTNGKKENYTVEVERQGNTWTVKRITRT [N33E],3.68
16,EEKRQVKQVAKEKLLEQSPNSKVQVRRVQKQGWTIRVELELRTNGKKENYTVEVERQGNTWTVKRITRT [N33W],3.36
17,EEKRQVKQVAKEKLLEQSPNSKVQVRRVQKQGYTIRVELELRTNGKKENYTVEVERQGNTWTVKRITRT [N33Y],3.5
18,EEKRQVKQVAKEKLLEQSPNSKVQVRRVQKQGGTIRVELELRTNGKKENYTVEVERQGNTWTVKRITRT [N33G],3.58
19,EEKRQVKQVAKEKLLEQSPNSKVQVRRVQKQGDTIRVELELRTNGKKENYTVEVERQGNTWTVKRITRT [N33D],3.9
20,EEKRQVKQVAKEKLLEQSPNSKVQVRRVQKMGNTIRVELELRTNGKKENYTVEVERQGNTWTVKRITRT [Q31M],4.47

row,Variant,folding stability dG [kcal/mol]
1,EEKRQVKQVAKEKLLEQSPNSKVQVRRVQKVGNTIRVELELRTNGKKENYTVEVERQGNTWTVKRITRT [Q31V],4.25
2,EEKRQVKQVAKEKLLEQSPNSKVQVRRVQKAGNTIRVELELRTNGKKENYTVEVERQGNTWTVKRITRT [Q31A],3.75
3,EEKRQVKQVAKEKLLEQSPNSKVQVRRVQKGGNTIRVELELRTNGKKENYTVEVERQGNTWTVKRITRT [Q31G],3.13
4,EEKRQVKQVAKEKLLEQSPNSKVQVRRVQKFGNTIRVELELRTNGKKENYTVEVERQGNTWTVKRITRT [Q31F],4.21
5,EEKRQVKQVAKEKLLEQSPNSKVQVRRVQKKGNTIRVELELRTNGKKENYTVEVERQGNTWTVKRITRT [Q31K],3.83
6,EEKRQVKQVAKEKLLEQSPNSKVQVRRVQKDGNTIRVELELRTNGKKENYTVEVERQGNTWTVKRITRT [Q31D],3.89
7,EEKRQVKQVAKEKLLEQSPNSKVQVRRVQKWGNTIRVELELRTNGKKENYTVEVERQGNTWTVKRITRT [Q31W],4.41
8,EEKRQVKQVAKEKLLEQSPNSKVQVRRVQKIGNTIRVELELRTNGKKENYTVEVERQGNTWTVKRITRT [Q31I],4.42
9,EEKRQVKQVAKEKLLEQSPNSKVQVRRVQKPGNTIRVELELRTNGKKENYTVEVERQGNTWTVKRITRT [Q31P],1.87
10,EEKRQVKQVAKEKLLEQSPNSKVQVRRVQKEGNTIRVELELRTNGKKENYTVEVERQGNTWTVKRITRT [Q31E],4.05
11,EEKRQVKQVAKEKLLEQSPNSKVQVRRVQKNGNTIRVELELRTNGKKENYTVEVERQGNTWTVKRITRT [Q31N],3.84
12,EEKRQVKQVAKEKLLEQSPNSKVQVRRVQKSGNTIRVELELRTNGKKENYTVEVERQGNTWTVKRITRT [Q31S],4.03
13,EEKRQVKQVAKEKLLEQSPNSKVQVRRVQKLGNTIRVELELRTNGKKENYTVEVERQGNTWTVKRITRT [Q31L],4.27
14,EEKRQVKQVAKEKLLEQSPNSKVQVRRVQKYGNTIRVELELRTNGKKENYTVEVERQGNTWTVKRITRT [Q31Y],4.34
15,EEKRQVKQVAKEKLLEQSPNSKVQVRRVQKRGNTIRVELELRTNGKKENYTVEVERQGNTWTVKRITRT [Q31R],4.05
16,EEKRQVKQVAKEKLLEQSPNSKVQVRRVQKHGNTIRVELELRTNGKKENYTVEVERQGNTWTVKRITRT [Q31H],4.3
17,EEKRQVKQVAKEKLLEQSPNSKVQVRRVQKCGNTIRVELELRTNGKKENYTVEVERQGNTWTVKRITRT [Q31C],3.92
18,EEKRQVKQVAKEKLLEQSPNSKVQVRRVQKTGNTIRVELELRTNGKKENYTVEVERQGNTWTVKRITRT [Q31T],4.12
19,EEKRQVKQVAKEKLLEQSPNSKVQVRRVQKQGNTCRVELELRTNGKKENYTVEVERQGNTWTVKRITRT [I35C],3.39
